From patent US20220324957A1 (OPSIDIO, published 2022)
Where a chain is given by its changes, count along the chain named.

B1: 5H10 VH0/VK0 (chimeric) (antibody, V domains shown)
VH: QVQLQQSGAELVRPGSSVKISCKSSGYAFSSYWMNWVKQRPGQGLEWIGQIYPGDGDTHYNGKFKGKATLTADKSSSTAYMQLSRLTSEDSAVYFCSSSNWVGSYWGQGTLVTVSA
VL: not shown
notes: also called chimeric 5H10
B2: murine 5H10 antibody (antibody, V domains shown)
VH: B1 VH
VL: not shown
notes: Mouse hybridoma monoclonal with a kappa light chain; It was conjugated to a fluorescent marker for flow cytometry and to pHrodo red for the internalisation assay; also called OpSCF; m5H10
B3: humanized 5H10 VH3/VK2 (antibody, human IgG4, V domains shown)
VH: QVQLVQSGAEVKKPGSSVKVSCKSSGYAFSSYWMNWVRQRPGQGLEWIGQIYPGDGDTHYNGKFKGKATLTADKSTSTAYMELSSLRSEDTAVYFCSSSNWVGSYWGQGTLVTVSS
VL: DVVMTQSPLSLPVTLGQPASISCKSSQSLLESDGKTYLNWLQQRPGQSPRRLIYLVSRLDSGVPDRFTGSGSGTDFTLKISRVEAEDVGVYYCWQGTHLPQTFGGGTKVEIK
notes: Only variable domains are tied to the name; Humanized from the chimeric antibody, which has a human IgG4 backbone and a kappa light chain
B4: humanized 5H10 VH4/VK2 (antibody, human IgG4, V domains shown)
VH: B3 VH with K67R, A68V, L70I
VL: B3 VL
notes: as for B3
B5: humanized 5H10 VH2/VK3 (antibody, human IgG4, V domains shown)
VH: B3 VH with V20I, R38K
VL: B3 VL with T68S
notes: as for B3
B6: humanized 5H10 VH3/VK3 (antibody, human IgG4, V domains shown)
VH: B3 VH
VL: B3 VL with T68S
notes: as for B3
B7: humanized 5H10 VH1/VK3 (antibody, human IgG4, V domains shown)
VH: B3 VH with V11L, V20I, R38K, R87T, T91S
VL: B3 VL with T68S
notes: as for B3
B8: humanized 5H10 VH4/VK3 (antibody, human IgG4, V domains shown)
VH: B3 VH with K67R, A68V, L70I
VL: B3 VL with T68S
notes: as for B3

Legend:
[1] = target: T1, human stem cell factor isoform SCF248 (hSCF248) (human, UniProt P21583 26-273); test: binding score on Sl/Sl4 hSCF248 cells
T1 construct: also called soluble SCF
T1 sequence (P21583 26-273 limits assumed): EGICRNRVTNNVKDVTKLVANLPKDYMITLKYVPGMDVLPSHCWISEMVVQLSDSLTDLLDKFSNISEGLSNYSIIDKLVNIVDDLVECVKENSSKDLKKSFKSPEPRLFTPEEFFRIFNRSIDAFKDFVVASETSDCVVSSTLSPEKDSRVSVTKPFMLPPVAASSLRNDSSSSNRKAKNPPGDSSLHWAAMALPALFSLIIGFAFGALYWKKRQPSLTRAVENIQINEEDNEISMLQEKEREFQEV

[2] = target: T1, human stem cell factor isoform SCF248 …; test: flow cytometry, directly labelled antibody on Sl/Sl4 hSCF248 cells
Description: Binding of the labeled antibody to the cells was assessed by flow cytometry.

| Binder | binding result [1] | binding result [2] |
| --- | --- | --- |
| B1 | binds |  |
| B2 |  | binds |
| B3 | binds |  |
| B4 | binds |  |
| B5 | binds |  |
| B6 | binds |  |
| B7 | binds |  |
| B8 | binds |  |
